Laboratory results published in article PMC7988490, “Molecular insights into replication initiation in a multipartite genome harboring bacterium Deinococcus radiodurans” (The Journal of Biological Chemistry, 2020).

How the values were obtained:
[1] = biological target: T1, drDnaB (DnaB) (Deinococcus radiodurans R1 (ATCC13939)) (UniProt Q9RWW6); assay: EMSA; settings: nonspecific, EMSA: 50 mM Tris-HCl pH 8.0, 75 mM KCl, 5 mM MgSO4, 0.1 mM DTT, ~30 nM 32P-DNA, 37 C 15 min
T1 sequence: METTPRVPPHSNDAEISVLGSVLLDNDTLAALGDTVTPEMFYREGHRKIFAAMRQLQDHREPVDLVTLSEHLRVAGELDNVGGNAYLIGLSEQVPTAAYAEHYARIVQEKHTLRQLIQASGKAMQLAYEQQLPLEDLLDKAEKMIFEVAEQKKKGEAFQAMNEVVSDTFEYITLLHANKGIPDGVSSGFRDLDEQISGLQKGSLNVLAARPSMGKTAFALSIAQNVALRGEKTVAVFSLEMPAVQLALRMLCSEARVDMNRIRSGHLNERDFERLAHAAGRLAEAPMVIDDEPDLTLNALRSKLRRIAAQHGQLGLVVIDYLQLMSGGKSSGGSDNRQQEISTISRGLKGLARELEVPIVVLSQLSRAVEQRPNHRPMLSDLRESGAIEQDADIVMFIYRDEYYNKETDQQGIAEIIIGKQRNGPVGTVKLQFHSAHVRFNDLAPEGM

[2] = biological target: T2, drDnaB (DnaB) (Deinococcus radiodurans R1 (ATCC13939), UniProt Q9RWW6 1-448); assay: EMSA; ATPgS; EMSA: 50 mM Tris-HCl pH 8.0, 75 mM KCl, 5 mM MgSO4, 0.1 mM DTT, +/- 1 mM ATP, ~30 nM 32P-DNA, 37 C 15 min; settings: protein: recombinant; tags: N-terminal 6xHis (pET28a); chain copies: 6; label: 32P 5' end
T2 sequence: T1 sequence

[3] = biological target: T2, drDnaB (DnaB); assay: EMSA; no ATP; EMSA: 50 mM Tris-HCl pH 8.0, 75 mM KCl, 5 mM MgSO4, 0.1 mM DTT, +/- 1 mM ATP, ~30 nM 32P-DNA, 37 C 15 min; settings: protein: recombinant; tags: N-terminal 6xHis (pET28a); chain copies: 6; label: 32P 5' end
[4] = biological target: T2, drDnaB (DnaB); assay: EMSA; 1 mM ATP; EMSA: 50 mM Tris-HCl pH 8.0, 75 mM KCl, 5 mM MgSO4, 0.1 mM DTT, +/- 1 mM ATP, ~30 nM 32P-DNA, 37 C 15 min; settings: protein: recombinant; tags: N-terminal 6xHis (pET28a); chain copies: 6; label: 32P 5' end
[5] = biological target: T3, recombinant drDnaA, purified (D. radiodurans, UniProt Q9RYE7 1-466); assay: SPR; 20 μM PprA immobilised on a bare gold sensor chip by EDC-NHS at 20 °C (~200 response units); 4–20 μM drDnaA or drDnaB incubated with 1 mM ATP and 1 mM MgCl2 in the mobile phase; 20 mM Tris pH 7.6; Autolab Esprit; settings: both partners purified
T3 construct: DnaA of Deinococcus radiodurans, DR_0002
T3 sequence (looked up): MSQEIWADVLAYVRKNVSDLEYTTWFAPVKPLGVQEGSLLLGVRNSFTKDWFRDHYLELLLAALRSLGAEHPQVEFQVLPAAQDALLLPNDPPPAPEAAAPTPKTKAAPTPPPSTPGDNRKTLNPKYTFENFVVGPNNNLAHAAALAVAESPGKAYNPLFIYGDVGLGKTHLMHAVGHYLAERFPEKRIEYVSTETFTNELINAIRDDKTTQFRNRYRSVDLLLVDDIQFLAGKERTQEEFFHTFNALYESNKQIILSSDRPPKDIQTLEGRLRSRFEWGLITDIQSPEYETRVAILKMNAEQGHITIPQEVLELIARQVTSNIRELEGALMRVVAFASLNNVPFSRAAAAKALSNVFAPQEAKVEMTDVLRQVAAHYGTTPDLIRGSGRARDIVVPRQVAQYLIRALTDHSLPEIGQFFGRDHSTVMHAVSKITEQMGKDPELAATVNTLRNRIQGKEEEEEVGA

[6] = biological target: T4, recombinant drDnaB, purified (D. radiodurans, UniProt Q9RWW6 1-448); assay: as above; settings: both partners purified
T4 construct: DnaB of Deinococcus radiodurans, DR_0549; the drdnaB gene was PCR amplified from genomic DNA of D. radiodurans R1 and cloned in pET28a(+) at BamHI and EcoRI
T4 sequence (looked up): T1 sequence

oriCI 500 bp (13 DnaA boxes)
Kd ([1]; 1 mM ATP): 8230 nM
Kd ([1]; no ATP, +/- 1 mM ATP): 8890 nM

B1: ssDNA oligo 99F (40 nt) (ssDNA)
DNA: GGAATTCCAATGAACCGCAAAACCGCAAAAACCGTACCGA
Kd [2]: 1020 ± 60 nM
Kd [3]: 3110 ± 110 nM
Kd [4]: 1420 ± 50 nM

B2: recombinant PprA (histidine-tagged PprA, His-PprA), purified (natural protein, D. radiodurans, UniProt O32504 1-300, looked up)
chain: MLPLAFLICSGHNKGSMARAKAKDQTDGIYAAFDTLMSTAGVDSQIAALAASEADAGTLDAALTQSLQEAQGRWGLGLHHLRHEARLTDDGDIEILTDGRPSARVSEGFGALAQAYAPMQALDERGLSQWAALGEGYRAPGDLPLAQLKVLIEHARDFETDWSAGRGETFQRVWRKGDTLFVEVARPASAEAALSDAAWDVIASIKDRAFQRELMRRSEKDGMLGALLGARHAGAKANLAQLPEAHFTVQAFVQTLSGAAARNAEEYRAALKTAAAALEEYQGVTTRQLSEVLRHGLRES
Kd [5]: 541 nM
Kd [6]: 971 nM
